Test results taken from US20250197505A1 (DREN BIO, published 2025).
Positions count from the first letter of the chain named. Values belong to the binder of their own block, whether it stands above or below them.

Experiments:
[1] = molecular target: T1, human CD94 expressed on cells (human primary NK cells in PBMCs; HEK cells expressing human CD94) (human, UniProt Q13241 1-179); test: cell-based or functional assay
T1 sequence (looked up): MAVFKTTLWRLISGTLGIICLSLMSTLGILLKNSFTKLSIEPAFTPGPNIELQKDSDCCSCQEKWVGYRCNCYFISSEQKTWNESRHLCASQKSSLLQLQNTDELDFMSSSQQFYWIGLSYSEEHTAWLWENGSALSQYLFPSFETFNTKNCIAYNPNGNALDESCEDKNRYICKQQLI

human CD94 protein = molecular target: T2, human CD94 protein (human, UniProt Q13241 34-179, limits assumed); test: OCTET BLI, Fab on human CD94 protein
T2 sequence (looked up): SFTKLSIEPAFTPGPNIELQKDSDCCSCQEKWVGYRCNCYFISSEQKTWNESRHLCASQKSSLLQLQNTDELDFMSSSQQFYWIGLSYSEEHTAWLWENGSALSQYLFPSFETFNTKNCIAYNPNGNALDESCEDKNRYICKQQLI

[2] = molecular target: T1, human CD94 expressed on cells (human …); test: flow cytometry, HEK cells expressing human CD94, 1st run
Method: (§1) Binding of the variant antibodies to HEK cells expressing human CD94 was also tested. Variants and ATX-130 antibodies were generated in human IgG1 form, and binding to HEK cells expressing human CD94 was assessed using flow cytometry. Experiments were run in duplicate, and the average EC50 of the 2 runs was calculated.

[3] = molecular target: T1, human CD94 expressed on cells (human …); test: flow cytometry, HEK cells expressing human CD94, 2nd run
Method: as §1

[4] = molecular target: T1, human CD94 expressed on cells (human …); test: flow cytometry, HEK cells expressing human CD94, average of 2 runs
Method: as §1

B1: 18H3-KIF (partially non-fucosylated human IgG1 18H3 produced in Expi-CHO cells with kifunensine) (antibody, V domains shown)
VH: EVQLVQSGAEVKKPGESLKISCKGSGYRFTSYWIGWVRQMPGKGLEWMGIIYPGDSDTRYSPSFQGQVIISADKSITTAFLQWSSLKASDTAMYYCARPFDYGGSPGYFDYWGQGTLVTVSS
VL: DIQMTQSPSTLSASVGDRVTITCRASQSIRSWLAWYQQKPGKAPKLLIYKASSLESGVPSRFSGSGSGTEFTLTISSLQPDDFATYYCQQYNTFWTFGQGTKVEIK
- IC50 of CLPD-NK leukemic cell depletion, ADCC assay with CLPD-NK patient PBMCs [1]: 0.059 µg/mL
- IC50 of NK cell depletion, ADCC assay with healthy donor PBMCs [1]: 0.02 µg/mL

B2: ATX-130 Fab (Fab, V domains shown)
VH: EVQLLESGGGLVKPGGSLRLSCAASGFTFSSYSMNWVRQAPGKGLEWVSSISTSSNFIYYADSVKGRFTISRDNAKNSLYLQMNSLRAEDTAVYYCARDLGRYYYYMDVWGKGTTVTVSS
VL: DIVMTQSPSSLSASVGDRVTITCRASQSISSWLAWYQQKPGKAPKSLIYAASSLQSGVPSKFSGSGSGTDFTLTISSLQPEDVATYYCQKYNSAPFTFGPGTKVDIK
notes: Fab version
- koff (human CD94 protein): 0.0029 s⁻¹

B3: ATX-130 hG1 (antibody, V domains shown)
VH: B2 VH
VL: B2 VL
notes: Human IgG1 form; also called ATX-130 human IgG1
- EC50 [2]: 0.11 nM
- EC50 [3]: 0.12 nM
- EC50 [4]: 0.12 nM

B4: Ab.26 Fab (Fab, V domains shown)
VH: B2 VH
VL: B2 VL with V3Q
notes: Fab version
- koff (human CD94 protein): 0.00446 s⁻¹

B5: Ab.24 Fab (Fab, V domains shown)
VH: B2 VH with N56S
VL: B2 VL
notes: Fab version
- koff (human CD94 protein): 0.00695 s⁻¹

B7: Ab.28 hG1 (antibody, V domains shown)
VH: B2 VH
VL: B2 VL with G41E
notes: Human IgG1 form; also called Ab.28 human IgG1
- EC50 [2]: 0.11 nM
- EC50 [3]: 0.11 nM
- EC50 [4]: 0.11 nM

B8: Ab.27 hG1 (antibody, V domains shown)
VH: B2 VH
VL: B2 VL with Y36F
notes: Human IgG1 form; also called Ab.27 human IgG1
- EC50 [2]: 0.26 nM
- EC50 [3]: 0.17 nM
- EC50 [4]: 0.22 nM

B10: Ab.22 Fab (Fab, V domains shown)
VH: B2 VH with L5V
VL: B2 VL
notes: Fab version
- koff (human CD94 protein): 0.00238 s⁻¹

B11: Ab.24 hG1 (antibody, V domains shown)
VH: B2 VH with N56S
VL: B2 VL
notes: Human IgG1 form; also called Ab.24 human IgG1
- EC50 [2]: 0.14 nM
- EC50 [3]: 0.13 nM
- EC50 [4]: 0.14 nM

B13: Ab.27 Fab (Fab, V domains shown)
VH: B2 VH
VL: B2 VL with Y36F
notes: Fab version
- koff (human CD94 protein): 0.00421 s⁻¹

B14: Ab.28 Fab (Fab, V domains shown)
VH: B2 VH
VL: B2 VL with G41E
notes: Fab version
- koff (human CD94 protein): 0.00425 s⁻¹

B19: Ab.25 hG1 (antibody, V domains shown)
VH: B2 VH with F57Y
VL: B2 VL
notes: Human IgG1 form; VH cell printed as 'SEO ID NO: 32'; also called Ab.25 human IgG1
- EC50 [2]: 0.15 nM
- EC50 [3]: 0.14 nM
- EC50 [4]: 0.15 nM

B23: Ab.25 Fab (Fab, V domains shown)
VH: B2 VH with F57Y
VL: B2 VL
notes: Fab version; VH cell printed as 'SEO ID NO: 32'
- koff (human CD94 protein): 0.00387 s⁻¹

B24: Ab.26 hG1 (antibody, V domains shown)
VH: B2 VH
VL: B2 VL with V3Q
notes: Human IgG1 form; also called Ab.26 human IgG1
- EC50 [2]: 0.14 nM
- EC50 [3]: 0.14 nM
- EC50 [4]: 0.14 nM

B25: Ab.22 hG1 (antibody, V domains shown)
VH: B2 VH with L5V
VL: B2 VL
notes: Human IgG1 form; also called Ab.22 human IgG1
- EC50 [2]: 0.12 nM
- EC50 [3]: 0.12 nM
- EC50 [4]: 0.12 nM

Second part, the binder after the results:

- EC50 [2]: 0.25 nM
- EC50 [3]: 0.13 nM
- EC50 [4]: 0.19 nM
B6: Ab.33 hG1 (antibody, V domains shown)
VH: B2 VH
VL: B2 VL with K90Q
notes: Human IgG1 form; also called Ab.33 human IgG1

- koff (human CD94 protein): 0.00576 s⁻¹
B9: Ab.34 Fab (Fab, V domains shown)
VH: B2 VH
VL: B2 VL with A94Y
notes: Fab version

- EC50 [2]: 0.18 nM
- EC50 [3]: 0.13 nM
- EC50 [4]: 0.16 nM
B12: Ab.29 hG1 (antibody, V domains shown)
VH: B2 VH
VL: B2 VL with A43V
notes: Human IgG1 form; also called Ab.29 human IgG1

- koff (human CD94 protein): 0.00352 s⁻¹
B15: Ab.31 Fab (Fab, V domains shown)
VH: B2 VH
VL: B2 VL with K61R
notes: Fab version

- EC50 [2]: 0.16 nM
- EC50 [3]: 0.13 nM
- EC50 [4]: 0.15 nM
B16: Ab.34 hG1 (antibody, V domains shown)
VH: B2 VH
VL: B2 VL with A94Y
notes: Human IgG1 form; also called Ab.34 human IgG1

- EC50 [2]: 0.12 nM
- EC50 [3]: 0.11 nM
- EC50 [4]: 0.12 nM
B17: Ab.32 hG1 (antibody, V domains shown)
VH: B2 VH
VL: B2 VL with V83F
notes: Human IgG1 form; also called Ab.32 human IgG1

- EC50 [2]: 0.1 nM
- EC50 [3]: 0.12 nM
- EC50 [4]: 0.11 nM
B18: Ab.31 hG1 (antibody, V domains shown)
VH: B2 VH
VL: B2 VL with K61R
notes: Human IgG1 form; also called Ab.31 human IgG1

- koff (human CD94 protein): 0.00481 s⁻¹
B20: Ab.33 Fab (Fab, V domains shown)
VH: B2 VH
VL: B2 VL with K90Q
notes: Fab version

- koff (human CD94 protein): 0.00338 s⁻¹
B21: Ab.29 Fab (Fab, V domains shown)
VH: B2 VH
VL: B2 VL with A43V
notes: Fab version

- koff (human CD94 protein): 0.0031 s⁻¹
B22: Ab.32 Fab (Fab, V domains shown)
VH: B2 VH
VL: B2 VL with V83F
notes: Fab version
